Where a chain is given by its changes, count along the chain named. Blank lines part the entries; values can stand above or below the binder they belong to.
Tests used:
[1] = biological target: T1, mouse AQP3 in cell lysate of HEK293T cells overexpressing mouse AQP3 and a myc-biotinylated tag (mouse, UniProt Q8R2N1 1-292, biotinylated tag (site not given)); test: ELISA on lysate of HEK293T cells overexpressing mouse AQP3 and a myc-biotinylated tag
T1 construct: also called AQP3 (cell lysate); not shown: myc-biotinylated tag
T1 sequence (looked up): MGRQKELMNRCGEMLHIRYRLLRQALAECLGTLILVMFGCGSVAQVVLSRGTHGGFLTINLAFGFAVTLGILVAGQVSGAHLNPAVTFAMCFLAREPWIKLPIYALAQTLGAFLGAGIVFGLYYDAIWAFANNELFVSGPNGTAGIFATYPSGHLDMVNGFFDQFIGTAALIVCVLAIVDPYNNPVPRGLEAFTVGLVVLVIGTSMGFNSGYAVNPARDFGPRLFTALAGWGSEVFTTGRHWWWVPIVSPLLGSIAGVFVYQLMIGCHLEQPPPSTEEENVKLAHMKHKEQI
Excerpt: Cell lysate from HEK293T cells overexpressing mouse AQP3 and a myc-biotinylated tag was used in an ELISA assay to measure the binding of antibodies A, B, C, D, E, F, G, H, J, and K to AQP3. Cell lysate from HEK293T cells overexpressing the myc-biotinylated tag but not AQP3 was used as control.

[2] = biological target: T2, human AQP3 on the cell surface (HaCaT cells, A431 cells, HEK293 cells stably overexpressing human AQP3) (human, UniProt Q92482 1-292); test: fluorescence of a labelled secondary antibody on HaCaT cells; antibody at 10 µg/mL
T2 construct: whole, on cells; Membrane water channel; also called human aquaporin 3
T2 sequence (looked up): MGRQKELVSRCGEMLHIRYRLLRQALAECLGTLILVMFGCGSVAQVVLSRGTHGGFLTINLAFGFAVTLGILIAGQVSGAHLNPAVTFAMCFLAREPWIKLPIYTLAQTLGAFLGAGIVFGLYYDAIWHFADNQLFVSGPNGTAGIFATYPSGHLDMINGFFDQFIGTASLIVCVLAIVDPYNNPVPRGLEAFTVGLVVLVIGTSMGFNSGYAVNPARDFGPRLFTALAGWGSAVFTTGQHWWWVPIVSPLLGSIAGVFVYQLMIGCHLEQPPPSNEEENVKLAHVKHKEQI
Experimental: (§1) PAM212 and macrophage cells were reacted with each anti AQP3 antibody (0.1, 1, or 10 μg/mL) at 4° C. for 1 hour. After washing the cells, a fluorescent-labeled anti mouse secondary antibody was added and the reaction was allowed to occur additionally for 1 hour (4° C.). By measuring the fluorescence intensity, the binding property of each anti AQP3 antibody to cells was obtained.
The assay was also performed using HaCaT cells and antibodies A, B, C, D, E, F, G, H, and J at a concentration of 10 μg/mL. Binding of antibodies C, D, E, H, and J to HaCaT cells was statistically significant. The results obtained by performing a FACS assay using HaCaT, which are human epithelial cells, and antibody G, antibody H, or antibody J are shown in FIG. 6A-6C, respectively. HaCaT cells were treated with Cell Dissociation Buffer for 30 minutes at 37° C., and then dislodged and collected. Then, the cells were reacted with 10 μg/mL anti AQP3 antibody at 4° C. for 1 hour. After washing the cells, a fluorescent-labeled anti mouse secondary antibody was added and the reaction was allowed to occur additionally for 1 hour (4° C.). Then, by using a flow cytometer, fluorescence intensity was measured (FIG. 6A to FIG. 6C). FIG. 6A represents the result of a case in which antibody G was used, FIG. 6B represents the result of a case in which antibody H was used, and FIG. 6C represents the result of a case in which antibody J was used. […] The histogram expressed with bold line represents a case in which the anti AQP3 antibody was used while the histogram expressed with thin gray line represents a case as a control in which the anti AQP3 antibody was not used (addition of non-specific IgG). […] Ratio (%) of the cells included in this range (=cells showing positive staining by anti AQP3 antibody) is also shown in the drawing.

[3] = biological target: T3, peptide used for immunization (SEQ ID NO:1), ATYPSGHLDM (human and mouse (identical sequence)); test: ELISA on the immunogen peptide SEQ ID NO:1
T3 construct: Synthetic peptide; also called immunogen peptide; synthetic peptide
T3 peptide: ATYPSGHLDM
Experimental: Binding of antibodies A, B, C, D, E, F, G, H, J, and K to the peptide used for immunization (SEQ ID NO:1) was tested in an ELISA assay. […] Thus, antibodies A, D, and F may therefore bind to AQP3 at a different epitope.

[4] = biological target: T4, mouse AQP3 on the cell surface (PAM212 cells, mouse macrophage cells, HEK293 cells stably overexpressing … (mouse, UniProt Q8R2N1 1-292)); test: fluorescence of a labelled secondary antibody on PAM212 cells; antibody at 10 µg/mL
T4 construct: whole, on cells; Membrane water channel; also called mouse aquaporin 3
T4 sequence (looked up): T1 sequence (looked up)
Experimental: as §1
The assay was also performed using PAM212 cells and antibodies A, B, C, D, E, F, G, H, and J at a concentration of 10 μg/mL. Binding of antibodies C, D, E, G, and J to PAM212 cells was statistically significant.

[5] = biological target: T4, mouse AQP3 on the cell surface (PAM212 …); test: fluorescence of a labelled secondary antibody on mouse macrophage cells; antibody at 0.1, 1 and 10 µg/mL
Experimental: as §1
The testing was also carried out using solvent (Veh) or a non-specific IgG (IgG) controls. In FIG. 4, the vertical axis represents fluorescence intensity, and the mean fluorescence intensity of each sample is represented by bar height together with standard error.

[6] = biological target: T2, human AQP3 on the cell surface (HaCaT …); test: flow cytometry on HaCaT cells; antibody at 10 µg/mL
Experimental: The assay was also performed using HaCaT cells and antibodies A, B, C, D, E, F, G, H, and J at a concentration of 10 μg/mL. Binding of antibodies C, D, E, H, and J to HaCaT cells was statistically significant. The results obtained by performing a FACS assay using HaCaT, which are human epithelial cells, and antibody G, antibody H, or antibody J are shown in FIG. 6A-6C, respectively. HaCaT cells were treated with Cell Dissociation Buffer for 30 minutes at 37° C., and then dislodged and collected. Then, the cells were reacted with 10 μg/mL anti AQP3 antibody at 4° C. for 1 hour. After washing the cells, a fluorescent-labeled anti mouse secondary antibody was added and the reaction was allowed to occur additionally for 1 hour (4° C.). Then, by using a flow cytometer, fluorescence intensity was measured (FIG. 6A to FIG. 6C). FIG. 6A represents the result of a case in which antibody G was used, FIG. 6B represents the result of a case in which antibody H was used, and FIG. 6C represents the result of a case in which antibody J was used. […] The histogram expressed with bold line represents a case in which the anti AQP3 antibody was used while the histogram expressed with thin gray line represents a case as a control in which the anti AQP3 antibody was not used (addition of non-specific IgG). […]

[7] = biological target: T4, mouse AQP3 on the cell surface (PAM212 …); test: FACS on HEK293 cells stably overexpressing mouse AQP3; antibody at 10 µg/mL
Experimental: A FACS assay was also performed using HEK293 cells stably overexpressing mouse AQP3. Cells were incubated with antibody E, H, J, or negative control IgG at a concentration of 10 μg/mL for one hour and then sorted by FACS. Separately, HEK293 cells stably overexpressing human AQP3 were incubated with antibody E at a concentration of 10 μg/mL for one hour and then sorted by FACS.

- binding result [6]: binds
- binding result [3]: binds
- binding result [4]: binds
- binding result [1]: binds
B5: antibody G (antibody, mouse IgG2a, kappa, V domains shown)
VH: QVQLKQSGAELVRPGASVTLSCKASGYTFTDYEMHWVKQTPVHGLEWIGGIDPETGGTAYNQKFKGKAILTADKSSSTAYMELRSLTSEDSAVYYCTRWGAITSFVALRGFAYWGQGTLVTVSS
VL: DIQMTQSPSSLSVSAGEKVTMSCKSSQSLLNSGNQKNYLAWYQQKPGQPPKLLIYGASTRESGVPDRFTGSGSGTDFTLTISSVQAEDLAVYYCQNDHSYPPTFGAGTKLELKR
notes: also called anti AQP3 mAb G

- binding result [3]: binds
- binding result [1]: binds
B6: antibody K (antibody, mouse IgG2a, kappa, V domains shown)
VH: QVQLKQSGAELVRPGTSVKVSCKASGYAFTNYLIEWVKQRPGQGLEWIGVINPGSGGTNYNEKFKGKATLTADKSSSTAYMQLSSLTSEDSAVYFCARWGFYYAMDYWGQGTSVTVSS
VL: DIVMTQSPSSLSASLGERVSLTCRASQEISGYLSWLQQKPDGTIKRLIYAASTLDSGVPKRFSGSRSGSDYSLTISSLESEDFADYYCLQYASYPLTFGAGTKLEIKR
notes: also called anti AQP3 mAb K

- binding result [2]: binds
- binding result [3]: binds
- binding result [7]: binds
- binding result [1]: binds
B8: antibody H (antibody, mouse IgG2a, kappa, V domains shown)
VH: EVKLVESGGDLVKPGGSLKLSCAASGFTFSSYGMSWVRQTPDKRLEWVATISRRSIYTYYPDSVQGRFTISRDNAKNTLYLQMSSLKSEDTAMYYCARLSLYDYDGARYTMDYWGQGTSVTVSS
VL: DIKMTQSPKFMSTSVGDRVSITCKASQDVGTAVAWYQQKPGQSPKLLIYWASTRHTGVPDRFTGSGSGTDFTLTISNVQSEDLADYFCQQYSSYHTFGAGTKLEIKR
notes: also called anti AQP3 mAb H

- binding result [2]: binds
- binding result [4]: binds
- binding result [1]: binds
B9: antibody D (antibody, mouse IgG2a, kappa, V domains shown)
VH: EVQLQQSGAELVRPGASVTLSCKASGYTFTDYEMHWVQQTPVHGLEWIGGIDPETGGTGYNQKFKGKAILTADKSSSTAYMELRSLTSEDSAVYFCTRHGSYAMDYWGQGTSVTVSS
VL: DIVMTQSPKFMSTSVGDRVSITCKASQDVSTAVAWYQQKPGQSPKLLIYWASTRHTGVPDRFTGSGSGTDYTLTISSVQAEDLALYYCQQHYSTPPTFGGGTRLEIKR
notes: also called anti AQP3 mAb D

- binding result [1]: binds
B10: antibody A (antibody, mouse IgG2a, kappa, V domains shown)
VH: QVQLQQPGAELVRPGASVTLSCKASGYTFTDYEMHWVKQTPVHGLEWIGGVDPETGGTGYNQKFRGKAILTADKSSSTAYMELRSLTSEDSAVYYCARHGGSFYAMDYWGQGTSVTVSS
VL: B9 VL with R103K, I106L
notes: also called anti AQP3 mAb A

Further lines, the binder ahead of its results:

B1: antibody F (antibody, mouse IgG2a, kappa, V domains shown)
VH: QVQLKESGPELVKPGASVKISCKASGYTFTDYYINWVKQRPGQGLEWIGWIFPGSGSTYYNEKFKGKATLTVDKSSSTAYMLLSSLTSEDSAVYFCADYGSSYRYFDVWGAGTTVTVSS
VL: DIVMTQSPAILSASPGEKVTMTCRASSSVSYMHWYQQKPGSSPKPWIYATSYLASGVPARFSGSGSGTSYSLTIGRVEAEDAATYYCQQWSSNPLTFGAGTKLELKR
notes: also called anti AQP3 mAb F
- binding result [1]: binds

B2: antibody E (antibody, mouse IgG2a, kappa, V domains shown)
VH: EVKLLESGAELVRPGASVTLSCKASGYTFTDYEMHWVKQTPVHGLEWIGGIDPESGGTGYNQKFKGKAILTADKSSSTAYMELRSLTSEDSAVYFCTRSGYYGSPLLDYWGQGTTLTVSS
VL: QIVLSQSPAIMSASLGERVTMTCTASSSVSSSYLHWYQQKPGSSPKLWIYSTSNLASGVPARFSGSGSGTSYSLTISSMEAEDAATYYCHQYHRSPPTFGAGTKLEIKR
notes: also called anti AQP3 mAb E
- binding result [2]: binds
- binding result [3]: binds
- binding result [4]: binds
- binding result [1]: binds

B3: antibody C (antibody, mouse IgG2a, kappa, V domains shown)
VH: QVQLKQSGAELARPGASVKLSCKASGYNFKSYGISWVKQRTGQGLEWIGEIYPGSGNTYYNEKLKGKATLTADKSSSTAYMELRSLTSEDSAVYFCARTYGYDSFPWFAYWGQGTLVTVSS
VL: DIVMTQAAPSVPVTPGESVSISCRSSKSLLHSNGNTYLYWFLQRPGQSPQLLIYRVSNLASGVPDRFSGSGSGTAFTLRISRVEAEDEGVYYCMQHLEYPFTFGAGTKLEIKR
notes: also called anti AQP3 mAb C
- binding result [2]: binds
- binding result [3]: binds
- binding result [4]: binds
- binding result [1]: binds

B4: antibody J (antibody, mouse IgG2a, kappa, V domains shown)
VH: QVHLQQSGTELVKPGASVKLSCEASGYTFTSYWMHWVKQRPGQGLEWIGNINPSNGGTNYNEKFKSKATLTVDKSSSTAYMQLSSLTSEDSAVYYCARGGIYYGNYDYYAMDYWGQGTSVTVSS
VL: B3 VL with E88V, A105G
notes: also called anti AQP3 mAb J; Ab
- binding result [2]: binds
- binding result [3]: binds
- binding result [1]: binds
- binding result [5]: binds

B7: antibody B (antibody, mouse IgG2a, kappa, V domains shown)
VH: B8 VH with K3Q, R54G, Q65K
VL: B8 VL with K3V, I105L
notes: also called anti AQP3 mAb B
- binding result [3]: binds
- binding result [1]: binds
